This series can be described thus: protein stability index of a GFP-peptide fusion (GPS, HEK-293T) (PSI 1-6); higher = more stable. Particulars: c terminus: a fixed tail appended.

Our source for the protein stability index values is the supplement of paper PMC10567573.

± gives the standard deviation.
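Also: 24-mer peptide tiles fused after GFP, lentivirally expressed, FACS-sorted into six equal bins by GFP/DsRed ratio, decoded by Illumina sequencing, PSI is the read-weighted mean bin number.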

With NFLFRNAASTLTERPCYNRRASKL [ANKRD40], the protein stability index worked out at 3.19 ± 0.28 (treatment: DMSO) and 3.4 ± 0.12 (treatment: MLN4924 1 uM, 8 h).
The corresponding values for NFSAAKSLLNKKADGVKPQTNSTK [CAMK2B] are 4.98 ± 0.22 and 4.85 ± 0.34.
Taken in the same sequence, the figures for NFSNYYVAHPPVTYSQPYPTWLPC [TENT5C] were 2.46 ± 0.5 and 2.17 ± 0.098.
NFSVDRWERKEGGGGISCVLQDGC [CPOX]: the protein stability index is, setting by setting: (treatment: DMSO) 3.8 ± 0.2; (treatment: MLN4924 1 uM, 8 h) 3.8 ± 0.33.
Taken in the same sequence, the figures for NHFVWRLIPVPMATQIQQLLQDKQ [VPS39] were 2.3 ± 0.44 and 2.16 ± 0.31.
Taken in the same sequence, the figures for NIGINGNHSLETCETTLFALRMAT [PTGFR] were 2.34 ± 0.21 and 2.33 ± 0.34.
The corresponding values for NITDETPDNCEMFLNFNGMKLFLD [ZER1] are 3.62 ± 0.18 and 3.65 ± 0.46.
Turning to NKISRFQAPISAPEYTYGISNIDT [MFF], the protein stability index was found to be 3.42 ± 0.28 (treatment: DMSO) and 3.56 ± 0.45 (treatment: MLN4924 1 uM, 8 h).
Sequence NKTPGAPESSALQPPPQSSEGLVG [WAS] showed a protein stability index (treatment: DMSO) of 5.41 ± 0.35 and a protein stability index (treatment: MLN4924 1 uM, 8 h) of 5.3 ± 0.31.
Regarding NLAQDPQCKEWQVLMCGFPFLLLF [TMEM120A], the protein stability index runs as follows: (treatment: DMSO) 2.5 ± 0.61; (treatment: MLN4924 1 uM, 8 h) 2.35 ± 0.61.
For NLLPAAGELQESGLALCPEVQDLL [SMG5], the protein stability index is, setting by setting: (treatment: DMSO) 4.26 ± 0.21; (treatment: MLN4924 1 uM, 8 h) 4.31 ± 0.13.
The corresponding values for NLVARHPLFSEDVVLKLFLSFSGS [SNX8] are 2.7 ± 0.58 and 2.33 ± 0.2.
Turning to NMNDNFLEGEEENELTLNEKNFFP [CHGB], the protein stability index runs as follows: (treatment: DMSO) 4.71 ± 0.16; (treatment: MLN4924 1 uM, 8 h) 4.81 ± 0.14.
Taken in the same sequence, the figures for NNVVPIHVPPTTENKPKVQCCQNI [RAB11A] were 4.56 ± 0.15 and 4.57 ± 0.21.
Taken in the same sequence, the figures for NPPKASAAPDCTPSLEAGNPAPAA [MYCL] were 5.34 ± 0.19 and 5.34 ± 0.23.
NQMKERQGLFFDMEAYLPKKNGLY [TMEM120A]: the protein stability index reads like this: (treatment: DMSO) 2.65 ± 0.077; (treatment: MLN4924 1 uM, 8 h) 2.73 ± 0.15.
The corresponding values for NQNSWGTGEDVKVILKNSQGEEVA [LMNB1] are 4.99 ± 0.22 and 4.85 ± 0.13.
The corresponding values for NRKRECGNAHYQRADFVLAANSYD [FKBP8] are 3.33 ± 0.35 and 3.68 ± 0.29.
Taken in the same sequence, the figures for NRPIETYQVHDYLRSKLCSLYEND [PPP2R2B] were 2.97 ± 0.084 and 3.22 ± 0.16.
As to NSAAATSPKGTLPPAALESSDSAN [CAMK2B], the protein stability index was determined as 5.39 ± 0.096 (treatment: DMSO) and 5.37 ± 0.21 (treatment: MLN4924 1 uM, 8 h).
The corresponding values for NSALKDKEDQFGRTPLMYCVLADR [INVS] are 3.37 ± 0.4 and 3.23 ± 0.37.
The corresponding values for NSLLEEETILHFFVQILLALHHVH [NEK8] are 2.38 ± 0.11 and 2.33 ± 0.35.
Taken in the same sequence, the figures for NTEIEKLGRSIVSSPQGKSGPEAA [PKD2L1] were 5.35 ± 0.22 and 5.34 ± 0.15.
Consider NTIAFRHLFLLGYSDGADDTFAAY [MCOLN1], for which the protein stability index reads like this: (treatment: DMSO) 2.46 ± 0.66; (treatment: MLN4924 1 uM, 8 h) 2.33 ± 0.12.
The corresponding values for NTLKRENSSPRVMQRKQSLGKPDQ [DLC1] are 4.85 ± 0.24 and 4.83 ± 0.38.
Taken in the same sequence, the figures for NVINHFYCDLPQLFQLSCSSTQLN [OR3A1] were 3 ± 0.66 and 2.84 ± 0.34.
Taken in the same sequence, the figures for NWEAPPGAFDSFLLRFGVPSPSTL [TNXB] were 3.06 ± 0.37 and 2.85 ± 0.28.
Regarding NYTNPLKVQTVIILGKVILWILHL [TMEM192], the protein stability index by setting is: (treatment: DMSO) 2.08 ± 0.19; (treatment: MLN4924 1 uM, 8 h) 2.15 ± 0.24.
As for PANVDASVMFRKWRDSKGKDKEYA [UBE2R2], the protein stability index amounted to 4.09 ± 0.27 (treatment: DMSO) and 3.95 ± 0.24 (treatment: MLN4924 1 uM, 8 h).
Taken in the same sequence, the figures for PAPATQMPSTPGFVGYNPYSHLAY [SMARCE1] were 2.37 ± 0.21 and 2.44 ± 0.27.
The corresponding values for PAQRITLAEALLHPFFAGLTPEER [CLK3] are 3 ± 0.28 and 3.13 ± 0.27.
Taken in the same sequence, the figures for PAVDLNQVLNETRNQYEALVETNR [KRT33B] were 3.39 ± 0.36 and 3.87 ± 0.74.
Turning to PCWKITLFVIVPVLGPLVALIICY [MOG], the protein stability index is, setting by setting: (treatment: DMSO) 2.87 ± 0.98; (treatment: MLN4924 1 uM, 8 h) 2.88 ± 1.2.
Turning to PDNEQLMEEVISPRQVSYTPQHHE [IQUB], the protein stability index turned out to be 5.16 ± 0.4 (treatment: DMSO) and 5.32 ± 0.19 (treatment: MLN4924 1 uM, 8 h).
Turning to PDTELKRYFGARAILGEQRPRQRQ [TCF25], the protein stability index (treatment: DMSO) stood at 4.25 ± 0.11 and the protein stability index (treatment: MLN4924 1 uM, 8 h) is 4.11 ± 0.18.
Taken in the same sequence, the figures for PEDGRIFAQRTFDYELLQMLQIVV [PCDHGC5] were 2.19 ± 0.4 and 2.3 ± 0.36.
The corresponding values for PEDLAQLEELIDMAVLEEIQQELI [RPAIN] are 2.54 ± 0.14 and 2.89 ± 0.41.
The corresponding values for PEDRPSLDDIIRHDFFLQGFTPDR [PLK2] are 4.35 ± 0.12 and 4.27 ± 0.29.
As for PESDILQPVPNTTEPDYKSKDWVF [STK38L], the protein stability index was found to be 4.45 ± 0.32 (treatment: DMSO) and 4.55 ± 0.19 (treatment: MLN4924 1 uM, 8 h).
Taken in the same sequence, the figures for PESSALQPPPQSSEGLVGALMHVM [WAS] were 3.77 ± 0.17 and 3.58 ± 0.56.
With PETEAVSSSQEIPTMPQPIEKVSV [ZMYND11], the protein stability index runs as follows: (treatment: DMSO) 5.24 ± 0.33; (treatment: MLN4924 1 uM, 8 h) 5.36 ± 0.26.
Taken in the same sequence, the figures for PETQLFWDKEPWFWHDTLTEQLWR [TLE6] were 2.7 ± 0.57 and 2.27 ± 0.36.
Taken in the same sequence, the figures for PFETREPPPAYEPPAPAPLPPPSA [SCAMP3] were 4.99 ± 0.22 and 5.08 ± 0.41.
Taken in the same sequence, the figures for PFHEMFVSRGGHGQQDLFRVLKAY [TBC1D10A] were 2.25 ± 0.18 and 2.42 ± 0.085.
As to PFLFFGHFWQLFNALTLFNLAQDP [TMEM120A], the protein stability index was 3.35 ± 0.086 (treatment: DMSO) and 3.08 ± 0.13 (treatment: MLN4924 1 uM, 8 h).
The corresponding values for PFYTSRIDEVLLHQDVDLVCINLP [GFOD1] are 2.08 ± 0.18 and 2.21 ± 0.35.
The corresponding values for PGDMLLQVNEINFENMSNDDAVRV [DVL3] are 4.4 ± 0.35 and 4.37 ± 0.21.
The corresponding values for PGETRRNSYPRADTGLFSRSKSGS [TRIM29] are 4.73 ± 0.18 and 5.01 ± 0.47.
Take PGFYATYESTLFEDQVPALEAPED [MIA2]: the protein stability index is, setting by setting: (treatment: DMSO) 5.18 ± 0.27; (treatment: MLN4924 1 uM, 8 h) 4.92 ± 0.36.
The corresponding values for PGPGGTMKRHSSRDAAGKPQRPRS [FCHO1] are 5.04 ± 0.16 and 5.12 ± 0.17.
Turning to PGSASLAQSRLEDPGQDLVPKQAI [DLX1], the protein stability index was determined as 4.83 ± 0.48 (treatment: DMSO) and 5 ± 0.34 (treatment: MLN4924 1 uM, 8 h).
Taken in the same sequence, the figures for PIRCGEVLFAVGGWCSGDAISSVE [KLHL20] were 2.22 ± 0.42 and 2.34 ± 0.41.
On to PIRSISLRSCYFSDPDCSMRPTLI [FBXO39], for which the protein stability index stood at 2.13 ± 0.36 (treatment: DMSO) and 2.07 ± 0.27 (treatment: MLN4924 1 uM, 8 h).
